Experimental data from article PMC10284691, “A tripartite rheostat controls self-regulated host plant resistance to insects” (Nature, 2023).

What was measured:
[1] = target: T1, BISP (purified from insect cells) (Nilaparvata lugens (brown planthopper)); assay: BLI; Octet RED96; biotinylated LRR or N14–LRR (20 μg/ml) on streptavidin biosensors, BISP, BISP(26–124) or BISP(125–241) in solution at different concentrations; PBS pH 7.4 with 0.05% Tween 20 and 0.5% BSA; 25 °C; association 180 s, dissociation 180 s; global fit; conditions: both partners purified
T1 construct: probably this one too; source: SF9 insect cells (baculovirus), purified (Ni-NTA, dialysed in PBS)

[2] = target: T2, BISP(26–124) (purified from insect cells) (Nilaparvata lugens (brown planthopper)); assay: as above; conditions: both partners purified
T2 construct: source: SF9 insect cells (baculovirus), purified (Ni-NTA, dialysed in PBS)

B1: BPH14–LRR (purified from insect cells) (domain or fragment)
chain: SGDRPEAIRTPSPEKGYPGIQTLICSRFKYLQNVSKYRSLRVLTTMWEGSFLIPKYHHHLRYLDLSESEIKALPEDISILYHLQTLNLSRCLSLRRLPKGMKYMTALRHLYTHGCWSLGSMPPDLGHLTCLQTLTCFVAGTCSGCSDLGELRQLDLGGRLELRKLENVTKADAKAANLGKKEKLTKLTLIWTDQEYKEAQSNNHKEVLEGLTPHEGLKVLSIYHCGSSTCPTWMNKLRDMVGLELNGCKNLEKLPPLWQLPALQVLCLEGLGSLNCLFNCDTHTPFTFCRLKELTLSDMTNFETWWDTNEVQGEELMFPEVEKLSIESCHRLTALPKASNAISESSGEVSTVCRSAFPALKEMKLYDLRIFQKWEAVDGTPREEATFPQLDKLEIRQCPELTTLPEAPKLSDLEISKGNQQISLQAASRHITSLSSLVLHLSTDDTETASVAKQQDSSDLVIEDEKWSHKSPLELMVLSRCNLLFSHPSALALWTCFAQLLDLKIRYVDALVSWPEEVFQGLVSLRKLEISVCENLTGHTQARGQSTPAPSELLPRLESLEITCCDSIVEVPNLPASLKLLEIRGCPGLESIVFNQQQDRTMLVSAESFAEQDKSSLISGSTSETNDHVLPRLESLVINWCDRLEVLHLPPSIKKLGIYSCEKLRSLSVKLDAVRELSIRHCGSLKSLESCLGELASLQQLKLFDCKSLESLPKGPQAYSSLTSLEIRGCSGIKVLPPSLQQRLDDIEDKELDACYEEAEAEPKSRHRQSAISRLMCLK
modifications: biotin (NHS-biotin) in the BLI assays; RED-NHS 2nd Generation dye in the MST assays
**Q.** How did the Kd [1] turn out when B1 was run?
**A.** 32.1 nM

**Q.** And the Kd [2]?
**A.** 127 nM
